Data from patent publication US20100183617A1 (UNIVERSITY OF VIRGINIA PATENT FOUNDATION, published 2010).

T1: purified recombinant mouse SAS1R (mature, 414 residues), His-tagged, expressed in E. coli (mouse, UniProt Q6HA09 24-435)
T1 construct: Purified from the insoluble fraction in 8 M urea on a Ni column; The preparation also holds a ˜25 kD C-terminal fragment; ZEP is the earlier name of SAS1R; also called rSAS1R; rec SAS1R; not shown: twenty vector-encoded (pET-28b(+)) amino acids including a six histidine tag at the N-terminus; ten vector-encoded amino acids including a six histidine tag at the C-terminus
T1 sequence: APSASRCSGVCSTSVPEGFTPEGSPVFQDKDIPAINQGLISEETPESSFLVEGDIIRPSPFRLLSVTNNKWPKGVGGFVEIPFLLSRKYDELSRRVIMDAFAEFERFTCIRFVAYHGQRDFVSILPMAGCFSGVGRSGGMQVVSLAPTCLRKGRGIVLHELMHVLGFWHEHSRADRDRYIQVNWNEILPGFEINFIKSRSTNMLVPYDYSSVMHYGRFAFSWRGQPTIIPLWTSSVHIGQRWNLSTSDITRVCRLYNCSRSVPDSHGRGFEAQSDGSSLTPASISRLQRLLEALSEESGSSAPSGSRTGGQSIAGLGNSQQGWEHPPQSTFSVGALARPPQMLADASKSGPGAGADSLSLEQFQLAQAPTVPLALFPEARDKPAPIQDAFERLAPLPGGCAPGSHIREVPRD

T2: in vitro translated 35S-methionine labeled full length SAS1R with N-terminal c-Myc tag (mouse, UniProt Q6HA09 24-435, 35S-methionine labeled)
T2 construct: ˜50 kD; also called SAS1R full length (F); F-SAS1R full length
T2 sequence: T1 sequence

B1: native mouse SLLP1 of sperm (acrosomal, ˜15 kDa form) (ligand)
chain: KVFSRCELAKEMHDFGLDGYRGYNLADWVCLAYYTSGFNTNAVDHEADGSTNNGIFQISSRRWCRTLASNGPNLCRIYCTDLLNNDLKDSIVCAMKIVQEPLGLGYWEAWRHHCQGRDLSDWVDGCDF
notes: Only a ˜15 kDa form is found in sperm extracts; The predicted processed form is residues 94-221 (cleavage between A93 and K94 is only predicted); On sperm or in sperm extracts; also called native SLLP1; native mSLLP1
B2: purified soluble recombinant mouse SLLP1 (mature form, residues 94-221), His-tagged, expressed in E. coli (ligand)
chain: B1 chain
notes: also called rSLLP1; rec SLLP1; not shown: two vector-encoded residues at the N-terminus and eight at the C-terminus including the six-histidine tag (pET28b+)
B3: in vitro translated 35S-methionine labeled mature mouse SLLP1 (128 residues) with N-terminal HA tag (ligand, not shown: small tags and cut ends)
chain: B1 chain
modifications: 35S-methionine labeled
notes: ˜16 kD; also called SLLP1 (S); S-SLLP1
B4: in vitro translated 35S-methionine labeled SAS1R N-terminus (121 residues) with N-terminal c-Myc tag (receptor, not shown: small tags and cut ends)
chain: MGAPSASRCSGVCSTSVPEGFTPEGSPVFQDKDIPAINQGLISEETPESSFLVEGDIIRPSPFRLLSVTNNKWPKGVGGFVEIPFLLSRKYDELSRRVIMDAFAEFERFTCIRFVAYHGQR
modifications: 35S-methionine labeled
notes: ˜21 kD; also called N-terminus (N); N-SAS1R N-terminus
B5: human Lamin C (negative control construct of the two-hybrid system) (other)
chain: SEEVVSREVSGIKAAYEAELGDARKTLDSVAKERARLQLELSKVREEFKELKARNTKKEGDLIAAQARLKDLEALLNSKEAALSTALSEKRTLEGELHDLRGQVAKLEAALGEAKKQLQDEMLRRVDAENRLQTMKEELDFQKNIYSEELRETKRRHETRLVEID

Tests used:
[1] = molecular target: T1, purified recombinant mouse SAS1R …; assay: co-localization by immunofluorescence, capacitated sperm incubated with rSAS1R
[2] = molecular target: T1, purified recombinant mouse SAS1R …; assay: far-western overlay
Experimental: Before protein overlay, the strips were incubated with blocking buffer for 1 h. […] After washing in PBST (×4), the strips were probed with goat anti-mouse HRP secondary antibody in blocking buffer for 1 h, washed in PBST (×4) followed by PBS (×1), and developed with TMB.

[3] = molecular target: T2, in vitro translated 35S-methionine …; assay: co-IP of in vitro translated 35S-labeled proteins, anti-Myc beads
Experimental: (§1) High affinity anti-c-Myc and anti-HA monoclonal antibodies coupled to agarose beads were employed to immunoprecipitate proteins (IP) and their radiolabeled putative interacting partners (Co-IP) using the Profound c-Myc/HA Tag IP/Co-IP system (Pierce, Ill.). For Co-IP reactions, the specific TNT products, ranging from 7-23 μl were gently mixed and kept at 4° C. for 1 h. Simultaneously the anti-c-Myc and anti-HA antibody beads were incubated with 5% milk in PBST (phosphate buffer saline with 0.05% Tween 20) for 1 h at 4° C. in Handy spin columns (Pierce, Ill.) with gentle end-over-end mixing to prevent loss of beads during the subsequent steps. Following blocking, the antibody beads were incubated with IP or Co-IP samples overnight at 4° C. in Handee spin columns with gentle end-over-end mixing. The beads were then precipitated and washed 3 times in 500 μl of PBST at 4000×g for 10 sec with 3 gentle mixes during each wash. The IP and co-IP products were then recovered from the beads in 23 μl of 2× non-reducing sample buffer, heated at 99° C. for 5 min, centrifuged, and mixed with 2 μl of β-mercaptoethanol, and 20 μl of this mixture was loaded per lane for SDS-PAGE analysis using Criterion gels (Bio-Rad, CA). After electrophoresis, the gels were fixed, air dried, exposed to phosphor screens, and imaged as described above for analysis of TNT products. […]

[4] = molecular target: B3; assay: as above
Experimental: as §1

[5] = molecular target: T3, SV40 large T-antigen (control construct of the two-hybrid system; HA-tagged when translated in vitro) (SV40, UniProt P03070 86-708); assay: yeast two-hybrid, high stringency plate
T3 construct: Control used both in the Y2H assay and in the co-IP (HA tag); also called T-antigen (T)
T3 sequence (P03070 86-708 limits assumed): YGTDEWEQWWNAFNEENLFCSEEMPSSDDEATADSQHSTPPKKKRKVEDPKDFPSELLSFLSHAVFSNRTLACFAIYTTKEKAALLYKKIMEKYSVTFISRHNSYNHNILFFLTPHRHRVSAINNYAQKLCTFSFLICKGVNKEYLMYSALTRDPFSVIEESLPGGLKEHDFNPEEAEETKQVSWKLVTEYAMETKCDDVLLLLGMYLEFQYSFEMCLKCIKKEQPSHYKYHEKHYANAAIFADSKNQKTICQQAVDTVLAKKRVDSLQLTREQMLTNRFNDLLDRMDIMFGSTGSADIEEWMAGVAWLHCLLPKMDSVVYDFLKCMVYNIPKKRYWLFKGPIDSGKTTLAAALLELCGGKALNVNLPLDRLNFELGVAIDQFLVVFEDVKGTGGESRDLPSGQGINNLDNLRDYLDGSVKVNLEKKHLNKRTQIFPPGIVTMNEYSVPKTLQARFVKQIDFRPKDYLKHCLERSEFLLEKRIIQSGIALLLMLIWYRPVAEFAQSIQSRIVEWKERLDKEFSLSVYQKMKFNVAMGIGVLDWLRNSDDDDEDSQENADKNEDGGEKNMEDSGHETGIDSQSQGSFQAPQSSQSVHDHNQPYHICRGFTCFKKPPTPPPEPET

B1
binding result [1]: binds

B2
binding result [2]: binds

B3
binding result [3]: binds

B4
binding result [4]: binds

B5
binding result [5]: no binding
